To fix the notation:
B1: GOLPH3 (parent)
chain: FAPLLDEQYDLATKRVRQLLDLDP

Drawing on the supplement of paper PMC10567573, this text covers protein stability index for 94 variants.
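Note: lentivirally expressed fusions sorted by FACS into six bins by GFP to DsRed ratio, PSI derived from sequencing read proportions per bin multiplied by bin number.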

Variants of B1 are the subject of the data set. The data set can be described thus: protein stability index of a GFP-peptide fusion (GPS, HEK-293T) (PSI 1-6); higher = more stable. The conditions noted are these: c terminus: a fixed tail appended.
Consider FAPLLAEQYDLATKRVRQLLDLDP, for which the protein stability index turned out to be 2.38.

FAPLLCEQYDLATKRVRQLLDLDP: the protein stability index came out at 2.25.

Turning to FAPMLDEQYDLATKRVRQLLDLDP, the protein stability index is 1.76.

Regarding FAPSLDEQYDLATKRVRQLLDLDP, the protein stability index is 1.75.

With FAPPLDEQYDLATKRVRQLLDLDP, the protein stability index is 2.35.

Turning to FAPGLDEQYDLATKRVRQLLDLDP, the protein stability index is 2.27.

As to FAPCLDEQYDLATKRVRQLLDLDP, the protein stability index turned out to be 1.67.

In the case of FAPDLDEQYDLATKRVRQLLDLDP, the protein stability index was determined as 3.39.

Regarding FAPFLDEQYDLATKRVRQLLDLDP, the protein stability index was 2.01.

Consider FAPKLDEQYDLATKRVRQLLDLDP, for which the protein stability index was 2.34.

With FAPILDEQYDLATKRVRQLLDLDP, the protein stability index is 2.33.

Regarding FAPHLDEQYDLATKRVRQLLDLDP, the protein stability index was 2.31.

For FAPELDEQYDLATKRVRQLLDLDP, the protein stability index came to 2.79.

Take FAPNLDEQYDLATKRVRQLLDLDP: the protein stability index turned out to be 3.2.

Consider FAPVLDEQYDLATKRVRQLLDLDP, for which the protein stability index is 3.17.

Consider FAPRLDEQYDLATKRVRQLLDLDP, for which the protein stability index amounted to 1.43.

Regarding FAPYLDEQYDLATKRVRQLLDLDP, the protein stability index is 2.65.

Take FAPALDEQYDLATKRVRQLLDLDP: the protein stability index is 1.81.

Regarding FAPQLDEQYDLATKRVRQLLDLDP, the protein stability index stood at 2.12.

Regarding FAPTLDEQYDLATKRVRQLLDLDP, the protein stability index is 1.72.

Consider FAPWLDEQYDLATKRVRQLLDLDP, for which the protein stability index is 2.28.

In the case of FQPLLDEQYDLATKRVRQLLDLDP, the protein stability index turned out to be 3.37.

With FDPLLDEQYDLATKRVRQLLDLDP, the protein stability index worked out at 3.71.

In the case of FHPLLDEQYDLATKRVRQLLDLDP, the protein stability index is 2.48.

As to FNPLLDEQYDLATKRVRQLLDLDP, the protein stability index was determined as 3.01.

For the variant FGPLLDEQYDLATKRVRQLLDLDP, the protein stability index was determined as 3.19.

Turning to FEPLLDEQYDLATKRVRQLLDLDP, the protein stability index is 3.13.

For the variant FKPLLDEQYDLATKRVRQLLDLDP, the protein stability index was 3.14.

Consider FFPLLDEQYDLATKRVRQLLDLDP, for which the protein stability index amounted to 2.03.

For FPPLLDEQYDLATKRVRQLLDLDP, the protein stability index was 3.45.

As to FYPLLDEQYDLATKRVRQLLDLDP, the protein stability index turned out to be 2.43.

For the variant FLPLLDEQYDLATKRVRQLLDLDP, the protein stability index worked out at 2.2.

For the variant FTPLLDEQYDLATKRVRQLLDLDP, the protein stability index was determined as 2.71.

With FCPLLDEQYDLATKRVRQLLDLDP, the protein stability index stood at 1.85.

In the case of FVPLLDEQYDLATKRVRQLLDLDP, the protein stability index is 2.11.

Consider FIPLLDEQYDLATKRVRQLLDLDP, for which the protein stability index was 1.75.

For FSPLLDEQYDLATKRVRQLLDLDP, the protein stability index was found to be 3.46.

As to FWPLLDEQYDLATKRVRQLLDLDP, the protein stability index worked out at 1.92.

Consider FMPLLDEQYDLATKRVRQLLDLDP, for which the protein stability index was determined as 2.03.

With FANLLDEQYDLATKRVRQLLDLDP, the protein stability index was determined as 3.18.

FALLLDEQYDLATKRVRQLLDLDP: the protein stability index was 1.6.

As to FAALLDEQYDLATKRVRQLLDLDP, the protein stability index came to 2.34.

FARLLDEQYDLATKRVRQLLDLDP: the protein stability index was 1.87.

On to FACLLDEQYDLATKRVRQLLDLDP, for which the protein stability index came out at 2.44.

For FAGLLDEQYDLATKRVRQLLDLDP, the protein stability index worked out at 2.59.

For the variant FAWLLDEQYDLATKRVRQLLDLDP, the protein stability index worked out at 2.16.

In the case of FAVLLDEQYDLATKRVRQLLDLDP, the protein stability index stood at 2.38.

As to FATLLDEQYDLATKRVRQLLDLDP, the protein stability index is 2.88.

In the case of FAMLLDEQYDLATKRVRQLLDLDP, the protein stability index was 1.78.

As to FAQLLDEQYDLATKRVRQLLDLDP, the protein stability index is 2.05.

In the case of FAYLLDEQYDLATKRVRQLLDLDP, the protein stability index was determined as 2.28.

As for FAHLLDEQYDLATKRVRQLLDLDP, the protein stability index was 3.07.

With FAFLLDEQYDLATKRVRQLLDLDP, the protein stability index stood at 1.52.

Regarding FADLLDEQYDLATKRVRQLLDLDP, the protein stability index amounted to 2.79.

With FAILLDEQYDLATKRVRQLLDLDP, the protein stability index amounted to 1.68.

Regarding FASLLDEQYDLATKRVRQLLDLDP, the protein stability index is 2.34.

As to FAELLDEQYDLATKRVRQLLDLDP, the protein stability index is 3.18.

FAKLLDEQYDLATKRVRQLLDLDP: the protein stability index was found to be 2.44.

Take FAPLVDEQYDLATKRVRQLLDLDP: the protein stability index came to 2.21.

FAPLPDEQYDLATKRVRQLLDLDP: the protein stability index is 2.21.

On to FAPLRDEQYDLATKRVRQLLDLDP, for which the protein stability index is 1.18.

Turning to FAPLYDEQYDLATKRVRQLLDLDP, the protein stability index amounted to 2.45.

Consider FAPLMDEQYDLATKRVRQLLDLDP, for which the protein stability index amounted to 2.38.

As for FAPLKDEQYDLATKRVRQLLDLDP, the protein stability index is 2.39.

Turning to FAPLCDEQYDLATKRVRQLLDLDP, the protein stability index was 1.82.

Regarding FAPLQDEQYDLATKRVRQLLDLDP, the protein stability index was 2.45.

Turning to FAPLFDEQYDLATKRVRQLLDLDP, the protein stability index is 2.6.

Take FAPLWDEQYDLATKRVRQLLDLDP: the protein stability index turned out to be 2.07.

Consider FAPLADEQYDLATKRVRQLLDLDP, for which the protein stability index is 2.34.

As for FAPLEDEQYDLATKRVRQLLDLDP, the protein stability index is 3.7.

On to FAPLNDEQYDLATKRVRQLLDLDP, for which the protein stability index was 2.97.

For the variant FAPLHDEQYDLATKRVRQLLDLDP, the protein stability index worked out at 2.42.

Turning to FAPLSDEQYDLATKRVRQLLDLDP, the protein stability index was found to be 1.85.

As for FAPLGDEQYDLATKRVRQLLDLDP, the protein stability index amounted to 2.24.

As for FAPLIDEQYDLATKRVRQLLDLDP, the protein stability index worked out at 1.78.

In the case of FAPLTDEQYDLATKRVRQLLDLDP, the protein stability index was found to be 1.95.

Consider FAPLDDEQYDLATKRVRQLLDLDP, for which the protein stability index was determined as 3.74.

As for KAPLLDEQYDLATKRVRQLLDLDP, the protein stability index was found to be 3.61.

With IAPLLDEQYDLATKRVRQLLDLDP, the protein stability index is 3.11.

As to QAPLLDEQYDLATKRVRQLLDLDP, the protein stability index came out at 4.03.

On to EAPLLDEQYDLATKRVRQLLDLDP, for which the protein stability index amounted to 4.59.

For VAPLLDEQYDLATKRVRQLLDLDP, the protein stability index amounted to 3.06.

Regarding MAPLLDEQYDLATKRVRQLLDLDP, the protein stability index came to 3.58.

LAPLLDEQYDLATKRVRQLLDLDP: the protein stability index stood at 3.67.

For the variant CAPLLDEQYDLATKRVRQLLDLDP, the protein stability index stood at 2.5.

Regarding SAPLLDEQYDLATKRVRQLLDLDP, the protein stability index is 4.39.

PAPLLDEQYDLATKRVRQLLDLDP: the protein stability index amounted to 4.59.

Turning to WAPLLDEQYDLATKRVRQLLDLDP, the protein stability index was 2.46.

With DAPLLDEQYDLATKRVRQLLDLDP, the protein stability index was determined as 4.39.

As for NAPLLDEQYDLATKRVRQLLDLDP, the protein stability index was 3.86.

In the case of GAPLLDEQYDLATKRVRQLLDLDP, the protein stability index came to 4.41.

For TAPLLDEQYDLATKRVRQLLDLDP, the protein stability index is 4.11.

On to YAPLLDEQYDLATKRVRQLLDLDP, for which the protein stability index amounted to 2.39.

With HAPLLDEQYDLATKRVRQLLDLDP, the protein stability index turned out to be 4.
